# T1: Hse1, P38753
# T1 sequence (P38753 208-285, looked up): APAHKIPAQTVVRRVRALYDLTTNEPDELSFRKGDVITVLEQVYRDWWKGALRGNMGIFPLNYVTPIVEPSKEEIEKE
# T2: Myo5, Q04439
# T2 sequence (Q04439 1072-1160, looked up): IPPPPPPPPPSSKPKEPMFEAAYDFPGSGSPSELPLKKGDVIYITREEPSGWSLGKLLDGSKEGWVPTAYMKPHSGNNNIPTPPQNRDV
# T3: Cyk3, Q07533
# T3 sequence (Q07533 1-83, looked up): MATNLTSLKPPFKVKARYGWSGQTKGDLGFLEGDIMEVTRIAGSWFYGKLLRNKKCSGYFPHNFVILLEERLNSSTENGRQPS
# T4: Sla1-2, P32790
# T4 sequence (P32790 60-140, looked up): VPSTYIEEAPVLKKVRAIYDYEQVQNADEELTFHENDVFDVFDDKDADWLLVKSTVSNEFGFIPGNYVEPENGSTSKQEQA
# T5: Bbc1, P47068
# T5 sequence (P47068 1-78, looked up): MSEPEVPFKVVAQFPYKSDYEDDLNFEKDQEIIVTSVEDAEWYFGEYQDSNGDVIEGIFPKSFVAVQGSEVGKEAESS
# T6: Pex13, P80667
# T6 sequence (P80667 295-386, looked up): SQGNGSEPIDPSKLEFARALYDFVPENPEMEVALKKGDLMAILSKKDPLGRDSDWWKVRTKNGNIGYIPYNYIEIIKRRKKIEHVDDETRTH
# T7: Fus1, P11710
# T7 sequence (P11710 432-512, looked up): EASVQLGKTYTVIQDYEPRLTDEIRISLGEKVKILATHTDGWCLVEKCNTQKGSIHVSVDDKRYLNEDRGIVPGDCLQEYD
# T8: Pin3, Q06449
# T8 sequence (Q06449 53-122, looked up): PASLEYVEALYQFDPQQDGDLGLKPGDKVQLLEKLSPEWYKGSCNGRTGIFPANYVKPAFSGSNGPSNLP
# T9: Sla1-3, P32790
# T9 sequence (P32790 344-424, looked up): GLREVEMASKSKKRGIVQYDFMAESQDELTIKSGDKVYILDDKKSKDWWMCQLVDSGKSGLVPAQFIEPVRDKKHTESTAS
# T10: Lsb1, P53281
# T10 sequence (P53281 45-122, looked up): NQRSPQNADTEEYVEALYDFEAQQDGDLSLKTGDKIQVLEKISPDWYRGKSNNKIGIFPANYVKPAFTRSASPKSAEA
# T11: Cdc25, P04821
# T11 sequence (P04821 50-136, looked up): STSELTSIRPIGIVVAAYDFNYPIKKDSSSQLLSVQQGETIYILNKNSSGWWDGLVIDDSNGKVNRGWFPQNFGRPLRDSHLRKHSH
# T12: Bzz1-1, P38822
# T12 sequence (P38822 478-572, looked up): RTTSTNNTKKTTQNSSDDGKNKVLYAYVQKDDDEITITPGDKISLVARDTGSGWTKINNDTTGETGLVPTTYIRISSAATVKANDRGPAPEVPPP
# T13: Boi2, P39969
# T13 sequence (P39969 32-116, looked up): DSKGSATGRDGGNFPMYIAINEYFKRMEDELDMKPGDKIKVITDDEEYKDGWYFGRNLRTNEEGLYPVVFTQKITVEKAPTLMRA
# T14: Nbp2, Q12163
# T14 sequence (Q12163 103-180, looked up): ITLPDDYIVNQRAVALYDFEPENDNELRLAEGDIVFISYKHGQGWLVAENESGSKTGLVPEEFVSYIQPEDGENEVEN
# T15: Lsb3, P43603
# T15 sequence (P43603 385-451, looked up): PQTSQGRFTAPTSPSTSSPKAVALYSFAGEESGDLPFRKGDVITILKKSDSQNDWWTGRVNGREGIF
# T16: Boi1, P38041
# T16 sequence (P38041 1-86, looked up): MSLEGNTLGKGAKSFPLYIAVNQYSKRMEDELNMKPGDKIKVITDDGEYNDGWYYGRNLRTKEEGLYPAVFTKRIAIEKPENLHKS
# T17: Lsb4, P32793
# T17 sequence (P32793 402-468, looked up): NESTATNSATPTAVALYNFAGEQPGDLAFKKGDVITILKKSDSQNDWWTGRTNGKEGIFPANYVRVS
# T18: Abp1, P15891
# T18 sequence (P15891 535-592, looked up): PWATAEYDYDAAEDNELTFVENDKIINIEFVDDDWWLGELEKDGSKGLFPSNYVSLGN
# T19: Hof1, Q05080
# T19 sequence (Q05080 590-669, looked up): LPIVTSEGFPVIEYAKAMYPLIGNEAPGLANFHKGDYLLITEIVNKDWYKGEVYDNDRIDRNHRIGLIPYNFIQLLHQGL
# T20: Bzz1-2, P38822
# T20 sequence (P38822 568-633, looked up): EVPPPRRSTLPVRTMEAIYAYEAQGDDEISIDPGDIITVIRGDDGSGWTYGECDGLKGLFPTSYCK
# T21: Bud14, P27637
# T21 sequence (P27637 247-328, looked up): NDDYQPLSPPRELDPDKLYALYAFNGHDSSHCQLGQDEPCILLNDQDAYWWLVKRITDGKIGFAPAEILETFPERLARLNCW
# Molecular target: T1, Hse1, P38753
# Assay: SPOT array
# Conditions: median of control spots 1727
row,SPOT intensity,Binder
1,0,ALKQKKIPPPFKPHL
2,20,KDKSRPPRPPPKPLH
3,57,ERPKRRAPPPVPKKP

# Molecular target: T2, Myo5, Q04439
# Assay: SPOT array
# Conditions: median of control spots 471
row,SPOT intensity,Binder
1,0,ALKQKKIPPPFKPHL
2,10,KDKSRPPRPPPKPLH
3,180,ERPKRRAPPPVPKKP

# Molecular target: T3, Cyk3, Q07533
# Assay: SPOT array
# Conditions: median of control spots 1451
row,SPOT intensity,Binder
1,0,ALKQKKIPPPFKPHL
2,0,KDKSRPPRPPPKPLH
3,0,ERPKRRAPPPVPKKP

# Molecular target: T4, Sla1-2, P32790
# Assay: SPOT array
# Conditions: median of control spots 712
row,SPOT intensity,Binder
1,0,ALKQKKIPPPFKPHL
2,0,KDKSRPPRPPPKPLH
3,0,ERPKRRAPPPVPKKP

# Molecular target: T5, Bbc1, P47068
# Assay: SPOT array
# Conditions: median of control spots 796
row,SPOT intensity,Binder
1,0,ALKQKKIPPPFKPHL
2,4,KDKSRPPRPPPKPLH
3,282,ERPKRRAPPPVPKKP

# Molecular target: T6, Pex13, P80667
# Assay: SPOT array
# Conditions: median of control spots 1341
row,SPOT intensity,Binder
1,0,ALKQKKIPPPFKPHL
2,8,KDKSRPPRPPPKPLH
3,62,ERPKRRAPPPVPKKP

# Molecular target: T7, Fus1, P11710
# Assay: SPOT array
# Conditions: median of control spots 1200
row,SPOT intensity,Binder
1,0,ALKQKKIPPPFKPHL
2,0,KDKSRPPRPPPKPLH
3,0,ERPKRRAPPPVPKKP

# Molecular target: T8, Pin3, Q06449
# Assay: SPOT array
# Conditions: median of control spots 2171
row,SPOT intensity,Binder
1,0,ALKQKKIPPPFKPHL
2,0,KDKSRPPRPPPKPLH
3,11,ERPKRRAPPPVPKKP

# Molecular target: T9, Sla1-3, P32790
# Assay: SPOT array
# Conditions: median of control spots 5475
row,SPOT intensity,Binder
1,0,ALKQKKIPPPFKPHL
2,1,KDKSRPPRPPPKPLH
3,2610,ERPKRRAPPPVPKKP

# Molecular target: T10, Lsb1, P53281
# Assay: SPOT array
# Conditions: median of control spots 388
row,SPOT intensity,Binder
1,0,ALKQKKIPPPFKPHL
2,7,KDKSRPPRPPPKPLH
3,326,ERPKRRAPPPVPKKP

# Molecular target: Bem1-2, P29366
# Assay: SPOT array
# Conditions: median of control spots 4347
# Sequence of Bem1-2, P29366 (P29366 139-227): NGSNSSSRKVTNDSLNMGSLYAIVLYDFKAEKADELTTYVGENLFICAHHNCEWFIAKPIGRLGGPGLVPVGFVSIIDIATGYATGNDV
row,SPOT intensity,Binder
1,0,ALKQKKIPPPFKPHL
2,0,KDKSRPPRPPPKPLH
3,279,ERPKRRAPPPVPKKP

# Molecular target: Bem1-1, P29366
# Assay: SPOT array
# Conditions: median of control spots 4282
# Sequence of Bem1-1, P29366 (P29366 55-141): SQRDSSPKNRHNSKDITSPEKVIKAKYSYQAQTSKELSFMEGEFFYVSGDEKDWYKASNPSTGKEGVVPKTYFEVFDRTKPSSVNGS
row,SPOT intensity,Binder
1,0,ALKQKKIPPPFKPHL
2,0,KDKSRPPRPPPKPLH
3,0,ERPKRRAPPPVPKKP

# Molecular target: Rvs167, P39743
# Assay: SPOT array
# Conditions: median of control spots 2707
# Sequence of Rvs167, P39743 (P39743 419-482): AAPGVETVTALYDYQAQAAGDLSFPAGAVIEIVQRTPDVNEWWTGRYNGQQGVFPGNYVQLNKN
row,SPOT intensity,Binder
1,0,ALKQKKIPPPFKPHL
2,0,KDKSRPPRPPPKPLH
3,10,ERPKRRAPPPVPKKP

# Molecular target: T11, Cdc25, P04821
# Assay: SPOT array
# Conditions: median of control spots 969
row,SPOT intensity,Binder
1,0,ALKQKKIPPPFKPHL
2,2,KDKSRPPRPPPKPLH
3,4,ERPKRRAPPPVPKKP

# Molecular target: T12, Bzz1-1, P38822
# Assay: SPOT array
# Conditions: median of control spots 4446
row,SPOT intensity,Binder
1,0,ALKQKKIPPPFKPHL
2,50,KDKSRPPRPPPKPLH
3,160,ERPKRRAPPPVPKKP

# Molecular target: T13, Boi2, P39969
# Assay: SPOT array
# Conditions: median of control spots 1161
row,SPOT intensity,Binder
1,0,ALKQKKIPPPFKPHL
2,0,KDKSRPPRPPPKPLH
3,0,ERPKRRAPPPVPKKP

# Molecular target: T14, Nbp2, Q12163
# Assay: SPOT array
# Conditions: median of control spots 357
row,SPOT intensity,Binder
1,0,ALKQKKIPPPFKPHL
2,2,KDKSRPPRPPPKPLH
3,58,ERPKRRAPPPVPKKP

# Molecular target: T15, Lsb3, P43603
# Assay: SPOT array
# Conditions: median of control spots 406
row,SPOT intensity,Binder
1,0,ALKQKKIPPPFKPHL
2,162,KDKSRPPRPPPKPLH
3,188,ERPKRRAPPPVPKKP

# Molecular target: Myo3, P36006
# Assay: SPOT array
# Conditions: median of control spots 468
row,SPOT intensity,Binder
1,0,ALKQKKIPPPFKPHL
2,104,KDKSRPPRPPPKPLH
3,358,ERPKRRAPPPVPKKP

# Molecular target: T16, Boi1, P38041
# Assay: SPOT array
# Conditions: median of control spots 1162
row,SPOT intensity,Binder
1,0,ALKQKKIPPPFKPHL
2,2,KDKSRPPRPPPKPLH
3,0,ERPKRRAPPPVPKKP

# Molecular target: T17, Lsb4, P32793
# Assay: SPOT array
# Conditions: median of control spots 397
row,SPOT intensity,Binder
1,0,ALKQKKIPPPFKPHL
2,114,KDKSRPPRPPPKPLH
3,89,ERPKRRAPPPVPKKP

# Molecular target: T18, Abp1, P15891
# Assay: SPOT array
# Conditions: median of control spots 935
row,SPOT intensity,Binder
1,42,ALKQKKIPPPFKPHL
2,339,KDKSRPPRPPPKPLH
3,673,ERPKRRAPPPVPKKP

# Molecular target: Sho1, P40073
# Assay: SPOT array
# Conditions: median of control spots 1148
# Sequence of Sho1, P40073 (P40073 287-367): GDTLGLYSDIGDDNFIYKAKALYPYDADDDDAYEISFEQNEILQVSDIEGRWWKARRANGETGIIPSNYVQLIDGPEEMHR
row,SPOT intensity,Binder
1,0,ALKQKKIPPPFKPHL
2,202,KDKSRPPRPPPKPLH
3,311,ERPKRRAPPPVPKKP

# Molecular target: T19, Hof1, Q05080
# Assay: SPOT array
# Conditions: median of control spots 4086
row,SPOT intensity,Binder
1,0,ALKQKKIPPPFKPHL
2,0,KDKSRPPRPPPKPLH
3,0,ERPKRRAPPPVPKKP

# Molecular target: T20, Bzz1-2, P38822
# Assay: SPOT array
# Conditions: median of control spots 4538
row,SPOT intensity,Binder
1,0,ALKQKKIPPPFKPHL
2,0,KDKSRPPRPPPKPLH
3,791,ERPKRRAPPPVPKKP

# Molecular target: T21, Bud14, P27637
# Assay: SPOT array
# Conditions: median of control spots 956
row,SPOT intensity,Binder
1,0,ALKQKKIPPPFKPHL
2,0,KDKSRPPRPPPKPLH
3,0,ERPKRRAPPPVPKKP

# Molecular target: GST
# Assay: SPOT array
# Conditions: median of control spots 978
row,SPOT intensity,Binder
1,0,ALKQKKIPPPFKPHL
2,0,KDKSRPPRPPPKPLH
3,0,ERPKRRAPPPVPKKP

# — publication PMC2756588
